Read-outs that look alike come from different tables or passages of the source.
Assays:
[1] = molecular target: TDP-43 C-terminal domain (residues 267-414) M337V (human) (UniProt Q13148)
[2] = molecular target: TDP-43 C-terminal domain (residues 267-414), wild type (human) (UniProt Q13148); experiment: 15N CPMG relaxation dispersion NMR
[3] = molecular target: TDP-43 C-terminal domain (residues 267-414), wild type (human) (UniProt Q13148); experiment: 15N CPMG relaxation dispersion NMR; remark: listed apart in the source

Substance	decrease of turbidity of 20 µM CTD in 150 mM NaCl against wild type [1] [%]	kex (kon + koff, global exchange rate) [2] [s⁻¹]	koff [2] [s⁻¹]	kex (kon + koff, global exchange rate) [3] [s⁻¹]	koff [3] [s⁻¹]
TDP-43 C-terminal domain (residues 267-414) M337V (from UniProt Q13148 267-414) (domain or fragment)	50	–	–	–	–
TDP-43 C-terminal domain (residues 267-414), wild type (from UniProt Q13148 267-414) (domain or fragment)	–	1000	970	1200	1100

From PMC5014597
